Assay results taken from article PMC12022260.

Target: T1, His-FleQ (Azotobacter vinelandii AEIV) (UniProt C1DQF1)
T1 sequence: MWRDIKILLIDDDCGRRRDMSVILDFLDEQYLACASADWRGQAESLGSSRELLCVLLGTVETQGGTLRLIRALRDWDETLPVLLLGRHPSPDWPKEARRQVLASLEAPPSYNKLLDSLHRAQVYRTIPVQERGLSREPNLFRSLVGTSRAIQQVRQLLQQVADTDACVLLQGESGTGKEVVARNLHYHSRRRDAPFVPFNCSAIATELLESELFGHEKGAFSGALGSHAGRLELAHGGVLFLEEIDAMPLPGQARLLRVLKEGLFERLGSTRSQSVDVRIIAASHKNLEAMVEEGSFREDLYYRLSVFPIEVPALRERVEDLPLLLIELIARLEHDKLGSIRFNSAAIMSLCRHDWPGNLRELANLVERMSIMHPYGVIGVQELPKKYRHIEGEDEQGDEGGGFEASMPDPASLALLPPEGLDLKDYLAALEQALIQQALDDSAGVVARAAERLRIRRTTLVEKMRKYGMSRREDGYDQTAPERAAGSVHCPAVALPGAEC
Assay: EMSA
Details: 10 mM Tris pH 8, 8 mM Mg acetate, 50 mM KCl, 10 ug/ml BSA, 5% glycerol; 100 ng DNA in 20 ul; room temperature 20 min; 6% native acrylamide gel, 0.5x-1x TBE …

Row | Sequence | binding
1 | CCGAAAATGCTGATACGCATTGCGTTCACCTCGTCCTTATTTAACGAAAAGTCGACGACTAAAACCCTTGGTCGTCACATTGCCGGCGGCCTTCAAGGGAAATTTGCAGGCCGAATTATAGTCAATAAAATGTCGTGCCAAATGAGCTGGCGTTAAAAGGCAGGTTGCAAGGGATGCTTTATAACTGCTCAAGCGATCCATGTTCG (double strand) [algD proximal region] | binds
2 | GCGAATTCGGACGCCGCGAGTAAAACGAAAAAGCAAGCCGCCTGAACCCACACTTGCGCTCCCGGCGTTTTGTACCATGCTTTTCCTGAATCATTGTGCTAAGGAGAAAAGTATGAATAAAAGAGGAGCGTTGTTGAGCCTGCTGGATCCAGG (double strand) [yebF regulatory region] | no binding
